Measured values as given in PMC6138732.
Blank lines part the entries; values can stand above or below the substance they belong to.

Columns and labels:
Assay in all cases: SEC; Protein A affinity, then S200 size exclusion to purify the hexamer fraction; analytical HPLC; hexamer counts Fc units
[1] = molecular target: IgG1 Fc hexamer (L309) (human)
[2] = molecular target: IgG1 Fc hexamer (L309C) (human)
[3] = molecular target: IgG4 Fc hexamer (L309) (human)
[4] = molecular target: IgG4 Fc hexamer (L309C) (human)

stoichiometry N [1]: 6
Substance: IgG1 Fc hexamer (L309)

stoichiometry N [2]: 6
Substance: IgG1 Fc hexamer (L309C)

stoichiometry N [3]: 6
Substance: IgG4 Fc hexamer (L309)

stoichiometry N [4]: 6
Substance: IgG4 Fc hexamer (L309C)
